The record followed here is article PMC3267046, “Structure of Ddn, the Deazaflavin-Dependent Nitroreductase from Mycobacterium tuberculosis Involved in Bioreductive Activation of PA-824” (Structure(London, England:1993), 2012).

The series deals with the molecule itself. The experiment in a line: SEC. (In general: Size exclusion chromatography separates by hydrodynamic size, large species first.)

B1: MBP-Ddn fusion protein, full-length wild-type deazaflavin-dependent nitroreductase (Ddn, Rv3547) fro (enzyme)
chain: MPKSPPRFLNSPLSDFFIKWMSRINTWMYRRNDGEGLGGTFQKIPVALLTTTGRKTGQPRVNPLYFLRDGGRVIVAASKGGAEKNPMWYLNLKANPKVQVQIKKEVLDLTARDATDEERAEYWPQLVTMYPSYQDYQSWTDRTIPIVVCEP
notes: also called WT MBP-Ddn
For B1, the binding result is “binds”.

B2: Untagged wild-type Ddn (full length), produced by proteolytic removal of MBP (enzyme)
chain: MPKSPPRFLNSPLSDFFIKWMSRINTWMYRRNDGEGLGGTFQKIPVALLTTTGRKTGQPRVNPLYFLRDGGRVIVAASKGGAEKNPMWYLNLKANPKVQVQIKKEVLDLTARDATDEERAEYWPQLVTMYPSYQDYQSWTDRTIPIVVCEP
notes: also called Untagged Ddn; untagged WT Ddn
In the case of B2, the binding result was “binds”.
